Measurements: patent US20160053277A1, “Compositions Having Dicamba Decarboxylase Activity and Methods of Use” (PIONEER HI-BRED INTERNATIONAL, INC., priority 2013, published 2016)

B1: 77 (protein)
chain: MALIDLHAHAPHPGYYNQHPHWGPFFERHEDGDVKLRVGDWILTLGSPERKALVRAGKGPTVEEYQARWADPKVRLAGMDAAGQNAQVVSVPSHCYMYWAEKEFSVPFATKVNDTFAEYCSAAPDRLMFWAHAALNAPEQAALELRRACTELGAKGLVAGGANFGGLEFDSPELDPVWKVLCDLDLPMFIHGYNQSVTWGKKANDDRYETTAIVGMQYDETRCFWNLVCGGVLDRFPGLKVYITHGGGYVPYQLGRLAQCNGNLDVAHNKKPVLEYLKNNFYFDVELHEVPMRQALIDIIGADRVLYGSNFGGSDAVRHDLTEGLRLSDDDLQKIRWKNACKLLHLDPAKIGEPAKKQAVSA
modifications: Burkholderia xenovorans
B2: 76 (protein, listed as Polymorphum gilvum)
chain: MAKKIDIFNHIWPEPFFKALIAHIGEMTDITMRSGAVPMMTNLDRRFEVMDMFGPDYMQVLSLASPPLEKLADPAKALELSRIGSDSLAELCQRYPERFPAFIGTAPLSNPAAVVGECRRAIEDLGAAGMQIFTNVAGKPLDLAEFEPFFEYMASAGKPVWLHPARGEAFADYQTEKRSEYEIWWTFGWPYETSAAMARLVFSRMFDKYPGLKVITHHAGGMVPFFEGRVGPGWDQMGARTTDRDLAAVRKALKRPHLDYFKEFYADTASFGSRKAIEHAIEFFGEDRVLFASDAPFDPEGGPMYIRETMRCIDSLDLTDAQRRKIYHGNATALLGLSL
B3: 71 (protein, listed as Burkholderia dolosa)
chain: MARAGHRAARTRQSRPGDRTMTCSCCMSAGRRRVLGAFAALAGAPKGPRAASAAQPAAASKPTRGDATARNRHSRALLPGKASASWSATKASGSGGAFAWDDTTFTFRTPAGGLGPLPMKFIDVDARLRDMDASGVDVQALSLSVPMAYWGDRPFNAKLARAWNTAASRVHVRAPDRFVVLATLPMLDATDAIDELERASELPGVRGVYMGTNIDNRDLDDPRFAPVFARIEQLGLPVFLHPQQTVGGARLGDFYLSNLLGNPFDTAIAASHLILGGVLDRHPALHFTLPHAGGALPILVGRLDAGWTVRAETRRLAHQPSGYLRRFSYDTVSHSGPVLNFLIENVGIDRLVLGSDYCFDMGYEQPVRFLDRLDLTPDERAMVIGGNAGRLLRI
B4: 84 (protein, listed as Mycobacterium rhodesiae)
chain: MASLIALEEHYAWDPASEGNVVATWLRANNGVAYDRLYDRGPLRIEQMDAAGIDFQILSLFDPGVQDEVDAVRAVDLARRANDDLAESVRANPSRFGGFATLATQQPDAAVAEFDRAVTELGLVGGLINGHCQGRYLDDPAYEALFSRAEALGAPIYLHPTTPHPAVMDAWFAPYVGDGLHLASWGFAAETGTHVLRLIYSGLFDKFPRLQMIIGHLGEMLPFAAYRIDRYYGLGGGGTGHTLQHLPSDYLRNNFHVTTSGNFCSPALDCTLDVMGADRVMFSVDYPMDDNQTGADFLASYPMDDTNRRKVASENALRLFGDRIPAALRN
B5: 72 (protein)
chain: MADCPCCVSPKRRRLLGSVSAIAAGMMAGLPALAAQPSTAAAGTGKPLSIDIHAHYYSESFLGLLGGEGKQFGGHFFRNDDSFTFQTPAGGLGPLPMKFIDVEQRVRDMDNSGVDVQAISLSVPMVYWADRTLNAKLARAWNTAASDVHRKHPTRFVVLATLPMLNANDAIDELEFAAGLPGVRGIYMGTNINNRDLDDPLFSPIFKRIEQLNLPIFLHPQQTVGGARLADFYLSNLLGNPFDTAIAASHLILGGVLDKYPALHFSLPHAGGALPILVGRIDAGWSMRSETKRVAQKPSSYLRRFSYDTISHSGPTLDFLIRNIGADRLVLGSDYCFDMGYEQPVRFLDRLALPDDQKRMVVGGNAARLLNL
modifications: Cupriavidus necator
B6: 82 (protein, listed as Rhodopseudomonas palustris)
chain: MAQNETPVIAIEEHYWDPEMVARFPAGENASPFSTLLTELGDVRLRAMDEAGIDVQVLSHGAPAAQKLPPDVAPELTRRVNDRLAEACARFPNRFAAFAALPTPAPEAAARELERCVRDLGFKGAMIHGLTNGLFIDDKRFWPIFEVAEKLDVPIYLHPSVPHADVTRYYYDDYAREFPTVIRPAWGFTVETATQAIRLILSRALESYPRLQIILGHLGETLPFLLWRINQALARPGQTPLDFRKQFCDHFHVTTSGFFSTPALICTMLELGIDRIMFAVDYPYVVNRDGTDWVQQLQISPDDKRKLVGGNARRLLKL
B7: 78 (protein, listed as Marinobacter adhaerens)
chain: MALIDLHAHAPHPDYYDQHPHWGPAFELQSDGDIKLRVGHWVLSLGAPERKQALREAHARGETLDVQEYMAKWRDPEHRLASMDAAGQNAQVLSVPSHCYMYWAEPEFGVPFAKKVNDSLAEYCSAAPDRLMFWAHAPLNVPKEAAKEIRRACTELGAKGLVAGGSNFGGLEFDSPEMDPVWEALCDLDLPMFVHGYNQSVTWGEEANTDRYETTAIVGMNYDESKCFWYMINGGVFDRFPNLKVYITHGGGFVPYQLGRMAQTNPNLDTYHNKKPFLEYLKNFYFDVELHEVPMRQAMVEVIGADRVLYGSNFGGSDAVRHDLTDDLKLSQEDLDKIRWKNACDLLHLDPNKLGKVRG
B8: 83 (protein, listed as Mycobacterium rhodesiae)
chain: MALIALEEHYAWSPVSAGNVVGSWLETHNVTAYQRLYDRGPLRLEQMDAAGIDFQILSLFDPGVQDDDDTARAVENARRANDDLAETVRAAPDRFGGFATLAPQDPDAAAAELERAVGELGLVGGLINGHTHGRYLDDPAYLGLFECAQRLGVPIYLHPTTPHPAVMDAWFAPYVKDGLHLASWGFAAETGTHALRLIYSGLFDTFPRLQMILGHLGEMLPYAAYRIDRYYGLGGGDDGGRLARLPSEYLRDNFHVTTSGNFNPVAFACALDVMGPDRLMFSVDYPMDDNVTGAEFLRNLEVDDDVRRKVAGENALQLFGDKIPRR
B9: 74 (protein, listed as Ramlibacter tataouinensis)
chain: MATVIDVHTHMFTTKWLELLKKEGGQYNIQTRPDGQQEIFRGNTPVVIPQKGHFDWKLRIQHMDQAGIDVSVVSLTCPNVYWGGEDVSVRAAREANDNVAQAQTAYPDRIRWFASLPWEYMATVIDVHTHMFTTKWLELLKKEGGQYNIQTRPDGQQEIFRGNTPVVIPQKGHFDWKLRIQHMDQAGIDVSVVSLTCPNVYWGGEDVSVRAAREANDNVAQAQTAYPDRIRWFASLPWEYPQRAVEELERSCAQGAAGVMVLANVAGRSLTDPLFAPVWAEIDRRALPVLVHPTDPPGVDLMDMTKFDLSWSVGFMFDTTLAITRMIFEGFFDRYPNLRIIASHGGGTLPYLVGRFEKGDEVELASRRQMKRKPTDYLRHIHYDCITYNLGALQYLISVVGAGQVMFGTDWPHWVHDTRGAFANTAQLPQEQTRAVRGANAQRLFKL
B10: 80 (protein, listed as Cordyceps militaris)
chain: MAAASTPVVVDIHTHMYPPSYIAMLEKRQTIPLVRTFPQADEPRLILLSSELAALDAALADPAAKLPGRPLSTHFASLAQKMHFMDTNGIRVSVISLANPWFDFLAPDEAPGIADAVNAEFSDMCAQHVGRLFFFAALPLSAPVDAVKASIERVKNLKYCRGIILGTSGLGKGLDDPHLLPVFEAVADAKLLVFLHPHYGLPNEVYGPRSEEYGHVLPLALGFPMETTIAVARMYMAGVFDHVRNLQMLLAHSGGTLPFLAGRIESCIVHDGHLVKTGKVPKDRRTIWTVLKEQIYLDAVIYSEVGLQAAIASSGADRLMFGTDHPFFPPIEEDVQGPWDSSRLNAQAVIKAVGEGSSDAAAVMGLNAVRVLSLKAE
B11: 75 (protein, listed as Ectocarpus siliculosus)
chain: MAKIDSYTHFACPAFMDHLEAESGHPMVFRGLFSSIPELSDIDLRIRYMDEHGIDVHCLVPLPWLECEPGLHADEGKALEACRIANDEMARVVARFPDRLIGVALIPTTTEQAMIQETTRAVKELGMAGVALFVGPTAKPPDMACFEGLYRTCEELGAVVWMHPCRPQSYADYDSYKGEGSKHQIWNTFGWIYDTSVAMVHIALAGVFRRYPGLKVVTHHHGAMVPFFTARFDTQRRNFQEVEGDDLLEDLRLFYCDTATFGESAANIQQAIDFFGKSQVLFGTDTPMDMGTRGMFTRTTIASVEALGAAPEDKESFYAGNVLDMLGERFAGISGARGAVAARPKGDSTRIAASL
B12: 73 (protein, listed as Sphaerobacter thermophilus)
chain: MARIDAHAHAQPPEYLDALLASGRYESVRDAEGRIVVRERGSRFLTITPQMHHPEQRVAEMDEAGIDMQILSVTTPQVYFLQGQAAVDLARRCNDYLADIVRSYPTRFRALASVPLTADPDAAVREFVRCLDDLGMVGAIIGSNIDGRPIDDPAFDAFYAEADRRATTLFIHPMVPAGIEVMNPYALAPLVGFMFDTTLAVSRLIFSGFFERYPRVKVLVGHLGAAVPYLAGRLDIGWRSYSDCQGIPHPPTEYIRRLYLDTVSFHAPALRCALETVGPDRIVFGSDYPHVIGDVGGAIASIQQALPATTHDGVLGHTAAELFGVSA

What was measured:
[1] = 14C assay with IPTG-induced recombinant E. coli cells: 14CO2 captured from [14C]-carboxyl-labeled dicamba; settings: for Enzymatic Detection level: dicamba decarboxylation activity of the protein of the given SEQ ID NO, High / Low / No; for Dicamba Decarboxylase Activity: induced recombinant E. coli cells, [14C]-carboxyl-labeled dicamba, 14CO2 capture
[2] = Saturation mutagenesis of SEQ ID NO:109: dicamba decarboxylation activity of point mutants (carbon dioxide released); settings: decarboxylation activity (carbon dioxide released) of point mutant compared with unmutated backbone protein; backbone SEQ ID NO: 109

Row | Molecule | Enzymatic Detection level [1] | Dicamba Decarboxylase Activity [1] | Fold Activity [2]
1 | B1 | No | No | 1.3
2 | B2 | No | No | 1.1
3 | B3 | Low | Low | 1.5
4 | B4 | Low | Low | 1
5 | B5 | Low | Low | 1.2
6 | B6 | Low | Low | 0.9
7 | B7 | Low | Low | 1.1
8 | B8 | Low | Low | 1.9
9 | B9 | Low | Low | 1.4
10 | B10 | Low | Low | 0.8
11 | B11 | Low | Low | 1.7
12 | B12 | Low | Low | 1.2
